Tests used:
Type in all cases: binding
Conditions in all cases: relative to the Beclin peptide according to the invention
Bcl-XL = Bcl-XL (Homo sapiens, UniProt Q07817); assay: Ki by fluorescence polarisation: competition with the Bak BH3 carboxyfluorescein peptide for Bcl-XL
Experimental: (§1) The determination of Ki using fluorescence polarisation consists of measuring the competitive effect of the Beclin peptide on the interaction between the pro-apoptotic Bak peptide and anti-apoptotic members of the Bcl-2 protein family such as Bcl-XL, Bcl-2 or Bcl-W.
(§2) The following reagents are mixed together in the order stated: • a) competitor peptide at a final concentration of from 1 nM to 100 μM; • b) fluorescent peptide ligand (Bak BH3 carboxyfluorescein) at a final concentration of 15 nM; • c) anti-apoptotic member of the Bcl-2 protein family at a final concentration of 100 nM for Bcl-XL and of 1 μM for Bcl-2 and Bcl-W.
(§3) These reagents are dissolved in the interaction buffer (Na2HPO4 20 mM pH 7.4, EDTA 1 mM, NaCl 50 mM and pluronic acid F-68 0.05%).
(§4) The mixture is then incubated for 30 minutes at ambient temperature and the fluorescence polarisation is determined on a Fusion apparatus (Packard) (excitation at 485 nm and reading at 530 nm). The values are given in mP (unit of fluorescence polarisation).
(§5) The protocol for the determination of Ki using fluorescence polarisation is the same as the protocol described above.

Bcl-2 = Bcl-2 (Homo sapiens, UniProt P10415); assay: Ki by fluorescence polarisation: competition with the Bak BH3 carboxyfluorescein peptide for Bcl-2
Sequence of Bcl-2 (P10415 whole entry): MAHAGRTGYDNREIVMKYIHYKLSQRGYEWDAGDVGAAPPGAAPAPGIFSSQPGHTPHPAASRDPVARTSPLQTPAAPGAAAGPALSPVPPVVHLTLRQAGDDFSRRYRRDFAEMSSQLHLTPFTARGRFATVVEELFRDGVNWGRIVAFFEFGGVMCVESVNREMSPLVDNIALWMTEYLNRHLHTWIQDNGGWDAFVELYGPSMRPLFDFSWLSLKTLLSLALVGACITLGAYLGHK
Experimental: as §1, §2, §3, §4, §5

Bcl-W = target: T1, Bcl-W (Homo sapiens, UniProt Q92843); assay: Ki by fluorescence polarisation: competition with the Bak BH3 carboxyfluorescein peptide for Bcl-W
T1 sequence (Q92843 1-193): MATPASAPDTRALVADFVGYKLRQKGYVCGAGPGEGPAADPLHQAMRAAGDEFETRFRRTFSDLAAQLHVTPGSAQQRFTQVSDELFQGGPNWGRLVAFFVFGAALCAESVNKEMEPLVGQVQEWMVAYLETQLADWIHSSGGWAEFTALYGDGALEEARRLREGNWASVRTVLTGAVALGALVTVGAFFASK
Experimental: as §1, §2, §3, §4, §5

Sequence of Bcl-XL (Q07817 whole entry): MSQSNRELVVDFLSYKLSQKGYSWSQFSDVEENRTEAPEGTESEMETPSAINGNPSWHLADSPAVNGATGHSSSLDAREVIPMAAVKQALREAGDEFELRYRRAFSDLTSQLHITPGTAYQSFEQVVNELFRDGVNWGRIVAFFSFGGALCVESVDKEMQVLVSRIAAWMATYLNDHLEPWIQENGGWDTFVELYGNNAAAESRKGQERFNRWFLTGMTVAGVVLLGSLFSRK

GTMENLSRRAKVTGDLFDIMSGQTDV (Mutated Beclin Peptide) [mutant Beclin protein (L116A)]
loss of competitive effect: competitive effect on the interaction between Bak peptide and Bcl-XL (Bcl-XL) | competitive effect on the interaction between Bak peptide and Bcl-2 (Bcl-2) | competitive effect on the interaction between Bak peptide and Bcl-W (Bcl-W)
